We go through one protein from PMC7910268.

For orientation: Km means the substrate concentration at which the rate is half of its maximum. As a reminder, the Vmax is the rate approached at saturating substrate. The term kcat denotes the number of substrate molecules converted per active site and unit of time at saturation.

Substrate in data set [1]: O=CCc1ccccc1
Put plainly: purified protein. The data set is classed as biochemical, Sphingopyxis fribergensis. The conditions noted are these: NAD+ 2.5 mmol L^-1, pH 7.7, aldehyde made from styrene oxide by SOI-1CP.

Substrate in data set [2]: NC(=O)c1ccc[n+]([C@@H]2O[C@H](COP(=O)(O)OP(=O)(O)OC[C@H]3O[C@@H](n4cnc5c(N)ncnc54)[C@H](O)[C@@H]3O)[C@@H](O)[C@H]2O)c1
Put plainly: purified protein. The data set is classed as biochemical, Sphingopyxis fribergensis. The conditions noted are these: phenylacetaldehyde 0.5 mmol L^-1, pH 7.7, aldehyde made from styrene oxide by SOI-1CP, varied: cofactor.

B1: FeaB-Kp5.2 (Sphingopyxis fribergensis) (protein)
chain: MATAQSYVTPLSAVSTFIGHDHGLFIDGDWRAAKGTERLDVFDPSTGEPIASVANASPDDVDHAVRAAHKAFESGVWSGIAPAERERLLLKFADLVEANAEELAQIETLNQGKSINISRFVDVGGAPAYMRYVAGLTTKITGETFDVSIGAIPGARFTASTRREPIGVVGAIAPWNFPMMIGLWKIMPALAAGCTVVLKPSEVTPLTSLRLASLAKEAGLPAGVLNVITGDGKAGKALVDHPLVAKITFTGSTATGKAIARSASDRLLRTSLELGGKNPAIFLADAPIEQAVQGAILGGFFNNGQVCAASSRLYIARAIYDPFIKALAHAVDGMTMGPGLDTAAQINPVVSLQHRAKILDHIARARQDGAQIVAGGESPDRAGYYVRPTVVVGAGAQLAISRQEVFGPLVTVTPFDDEDEAINLANDTEMGLTASLWTNDLKKTMDLVPRIKAGTVWVNCHNLIDPNMPFGGYKESGIGRDFGIHSLDGYSEVKSVCIAH
In the case of B1, in “purified protein [1]”, the Km amounted to 22 ± 5 µM, the maximum rate (Vmax) turned out to be 14.8 µmol/min/mg and the kcat came to 52 s⁻¹. In addition, in “purified protein [2]”, the Km was determined as 500 ± 300 µM, the Vmax amounted to 17.8 µmol/min/mg and the kcat turned out to be 62.5 s⁻¹.
